Assay results from US20260049134A1 (UNIVERSITY OF FLORIDA RESEARCH FOUNDATION, published 2026).
Numbering of substitutions follows the chain as printed. In names and notes the source's numbering stands.

T1: SELL
T1 construct: also called SELL-Fc-His (R&D Systems); L-Selectin
T1 chain: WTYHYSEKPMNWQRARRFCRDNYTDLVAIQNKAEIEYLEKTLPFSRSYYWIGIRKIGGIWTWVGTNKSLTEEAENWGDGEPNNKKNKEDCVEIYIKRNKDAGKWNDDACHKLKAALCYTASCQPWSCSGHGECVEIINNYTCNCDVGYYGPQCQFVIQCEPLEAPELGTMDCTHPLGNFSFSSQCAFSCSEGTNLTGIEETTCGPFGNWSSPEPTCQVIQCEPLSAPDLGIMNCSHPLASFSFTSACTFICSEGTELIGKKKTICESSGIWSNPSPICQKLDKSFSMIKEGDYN

T2: HHLA2
T2 construct: also called HHLA2-Fc (R&D Systems); B7-H7; not shown: Fc part and any linker
T2 chain: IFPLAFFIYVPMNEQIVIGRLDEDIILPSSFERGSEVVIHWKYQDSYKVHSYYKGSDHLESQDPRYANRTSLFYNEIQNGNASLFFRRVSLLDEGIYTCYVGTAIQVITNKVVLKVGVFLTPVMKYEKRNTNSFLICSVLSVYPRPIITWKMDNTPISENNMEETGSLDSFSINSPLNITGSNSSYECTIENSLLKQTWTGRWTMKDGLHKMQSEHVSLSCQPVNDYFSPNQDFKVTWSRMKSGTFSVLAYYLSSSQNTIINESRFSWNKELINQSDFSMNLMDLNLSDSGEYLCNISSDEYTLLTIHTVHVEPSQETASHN

T3: GARS-His (Sino Biological) (human, UniProt P41250 37-739, limits assumed)
T3 construct: Bought; also called GARS1; glycyl-tRNA synthetase; not shown: His tag of the bought protein
T3 sequence: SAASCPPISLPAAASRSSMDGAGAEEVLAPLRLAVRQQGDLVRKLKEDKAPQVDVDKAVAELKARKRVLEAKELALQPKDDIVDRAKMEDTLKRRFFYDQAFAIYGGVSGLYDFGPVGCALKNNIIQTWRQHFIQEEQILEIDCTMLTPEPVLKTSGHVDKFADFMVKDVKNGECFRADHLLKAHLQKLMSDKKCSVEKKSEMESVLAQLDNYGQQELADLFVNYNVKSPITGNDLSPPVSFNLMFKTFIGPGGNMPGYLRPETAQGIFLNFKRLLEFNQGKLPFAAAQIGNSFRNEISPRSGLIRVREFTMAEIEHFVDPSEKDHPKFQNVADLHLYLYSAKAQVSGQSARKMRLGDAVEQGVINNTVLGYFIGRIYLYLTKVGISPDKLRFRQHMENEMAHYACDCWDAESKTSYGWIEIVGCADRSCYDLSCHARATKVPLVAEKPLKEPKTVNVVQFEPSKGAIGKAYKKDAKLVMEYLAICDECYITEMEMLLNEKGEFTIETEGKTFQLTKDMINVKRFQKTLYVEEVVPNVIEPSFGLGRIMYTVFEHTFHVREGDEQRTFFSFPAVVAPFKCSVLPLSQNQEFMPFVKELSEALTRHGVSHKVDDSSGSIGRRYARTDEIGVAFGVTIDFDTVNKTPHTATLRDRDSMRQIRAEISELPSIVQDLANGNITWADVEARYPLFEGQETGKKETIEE

T4: CADM1-His (Acro Biosystems) (human, UniProt Q9BY67 45-374)
T4 construct: Bought; also called CADM1/IGSF4A; not shown: His tag of the bought protein
T4 sequence: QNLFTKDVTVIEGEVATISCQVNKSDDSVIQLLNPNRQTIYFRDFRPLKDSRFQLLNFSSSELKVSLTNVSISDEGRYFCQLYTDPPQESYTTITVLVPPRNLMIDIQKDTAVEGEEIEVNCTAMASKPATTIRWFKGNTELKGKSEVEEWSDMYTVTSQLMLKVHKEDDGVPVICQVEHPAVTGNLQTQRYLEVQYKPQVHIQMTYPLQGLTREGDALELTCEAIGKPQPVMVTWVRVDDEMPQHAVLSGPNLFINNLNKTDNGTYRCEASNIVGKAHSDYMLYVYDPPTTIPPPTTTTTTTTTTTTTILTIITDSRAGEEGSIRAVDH

T5: SELL (L-Selectin)
T5 construct: coated protein in the ELISA; also called SELL-Fc-His (R&D Systems)
T5 chain: T1 chain

T6: GARS, endogenous in H929 multiple myeloma cells (human, UniProt P41250 37-739, limits assumed)
T6 construct: Native protein pulled down from H929 lysates; also called Glycyl-tRNA synthetase; GlyRS
T6 sequence: T3 sequence

B1: HW-1 chimeric rabbit-human IgG1 LA/LA/PG (antibody, V domains shown)
VH: QSLEESGGGLFKPTDTLTLTCTASGFSLGSSYAISWVRQAPGKELEWIGTIDSGRAYYARWAKSRSTITRNTNENTVTLKMTSLTAADTATYFCARDLIPTYSQDIWGPGTLVTISS
VL: SFVLTQPASVQVNLGQTVSLTCTADTLSRRYASWYQQKPGQAPVLLIYRDTSRPSGVPDRFSGSSSGNTATLTISGAQAGDEADYYCATSDGSGNSYQYVFGGGTQLTVTS
notes: Fc-silenced (L234A/L235A/P329G) IgG1, lambda; Alexa Fluor 647-labeled in single-step flow cytometry; Prototype of cluster C-1
B2: HW-101 chimeric rabbit-human IgG1 LA/LA/PG (antibody, V domains shown)
VH: QEQLVESGGRLVTPGTPLTLTCKASGFSLGKYDMSWVRQAPGKGLEWIGTIYAGSGSTWYASWAKGRFTISKTSTTVDLKMTSLTTEDTATYFCARDFLGVNSIWGPGTLVTISS
VL: B1 VL with R30S, G40D, Y48H, S65N, N95S, S96N, Y97F, Q98H, Y99F, S111G
notes: Fc-silenced (L234A/L235A/P329G) IgG1, lambda; Alexa Fluor 647-labeled in single-step flow cytometry; Cluster C-97
B3: HW-97 chimeric rabbit-human IgG1 LA/LA/PG (antibody, V domains shown)
VH: QKQLVESGGRLVTPGTPLTLTCTVTGIDLSSHGMSWVRQAPGKGLEWIGVIYPSGSTWYASWARGRFTISKTSTTVDLKMTSLTTEDTATHFCARGDVGGADNNIWGPGTLVTVSS
VL: B1 VL with N13D, D25E, R30S, N95S, S111G
notes: Fc-silenced (L234A/L235A/P329G) IgG1, lambda; Alexa Fluor 647-labeled in single-step flow cytometry; Prototype of cluster C-97
B4: HW-113 chimeric rabbit-human IgG1 LA/LA/PG (antibody, V domains shown)
VH: QKQLVESGGGLVQPGGSLTLTCTVSGFSLNKYYMGWFRQAPGKGLEWIGVISRSGDTYYSSWAKGRFTISKASTTVDLRITSPTTEDTATYFCARDASSPGFHGDRLDLWGQGTLVTVSS
VL: B1 VL with R30S, S93I, N95S, S96N, Q98L, Y99W, S111G
notes: Fc-silenced (L234A/L235A/P329G) IgG1, lambda; Alexa Fluor 647-labeled in single-step flow cytometry
B5: HW-17 chimeric rabbit-human IgG1 LA/LA/PG (antibody, V domains shown)
VH: QSLGESRGRLVTPDETLTLTCTVSGIDLSSNAMSWVRQAPGEGLEWIGTINTGGRAYYASWAKGRFTISRTSTTVDLKMTSLTTEDTATYFCARERYSDGRAYDIWGPGTLVTISS
VL: B1 VL with R49T, T51S, S52N, V57I, S90D, N95S, S96I, S111G
notes: Fc-silenced (L234A/L235A/P329G) IgG1, lambda; Alexa Fluor 647-labeled in single-step flow cytometry; Cluster C-1
B6: TH9-0022 (antibody, human IgG1, kappa, L234A L235A, V domains shown)
VH: QSLEESGGRLVTPGTPLTLTCTVSGFSLSSYAMNWVRQAPGKGLEWIGIINSYGSTYYASWAKGRFTISKTSTTVDLKITSPTTEDTATYFCARVTYDSYGYGYAPYGMDLWGPGTLVTVSS
VL: LVMTQTPSSTSNAVGGTVTIKCQASQSIGNVLAWYQQKPGQPPKLLIYAASTLASGVPSRVGGSRSGTEYTLTISGVQREDAATYYCLGSDSDSDIAFGGGTELEILR
notes: also called TH9-022; negative control IgG1
B7: HW-81 chimeric rabbit-human IgG1 LA/LA/PG (antibody, V domains shown)
VH: QKQLVESGGGLVTPGGTLTLTCTVSGFSLSSNGVSWVRQAPGKGLEYIGLIRSIGSTYYATWAKGRFTISKTSTTVDLKITSPTTEDTATYFCARGGYRNGFKLWGPGTLVTVSS
VL: QPVLTQSPSVSAALGASAKLTCTLSSAHKTYYIEWYQQQHPGKAPRYLMQLQSDGSYTKGTGVPDRFSGSSSGADRYLIISSVQAEDEADYICGVIDSAVYVFGGGTQLTVTG
notes: Fc-silenced (L234A/L235A/P329G) IgG1, lambda; Alexa Fluor 647-labeled in single-step flow cytometry; Cluster C-45

Target: T1, SELL
Assay: ELISA on coated protein
B1: no binding (tested: 150 ng IgG1 per well). B2: no binding (tested: 150 ng IgG1 per well). B3: no binding (tested: 150 ng IgG1 per well). B4: no binding (tested: 150 ng IgG1 per well). B5: no binding (tested: 150 ng IgG1 per well). B6: no binding (tested: 150 ng IgG1 per well).

Target: T2, HHLA2
Assay: ELISA on coated protein
B1: no binding (tested: 150 ng IgG1 per well). B2: no binding (tested: 150 ng IgG1 per well). B3: no binding (tested: 150 ng IgG1 per well). B4: no binding (tested: 150 ng IgG1 per well). B5: no binding (tested: 150 ng IgG1 per well). B6: no binding (tested: 150 ng IgG1 per well).

These binders were tested against T3, GARS-His (Sino Biological) (assay: ELISA on coated protein).
B1: no binding (tested: 150 ng IgG1 per well). B2: no binding (tested: 150 ng IgG1 per well). B3: no binding (tested: 150 ng IgG1 per well). B4: no binding (tested: 150 ng IgG1 per well). B5: no binding (tested: 150 ng IgG1 per well). B6: no binding (tested: 150 ng IgG1 per well).

Each binder was assayed against T4, CADM1-His (Acro Biosystems) (assay: ELISA on coated CADM1-His).
Protocol: (§1) Recombinant purified ECDs (50-150 ng) of each putative target protein were coated, incubated with 150 ng of the indicated primary antibody, and binding was detected using a peroxidase-conjugated anti-human Fab secondary antibody. Heatmap represents averages of technical triplicates. (8B) Target validation via siRNA knockdown. H929 cells were transfected with siRNA pools targeting the putative antibody targets ICAM1, CADM1, and PTPRG. Cells were then subjected to cognate IgG binding analysis via flow cytometry. (NT, non-targeting siRNA).
(§2) ELISA ELISA was conducted as described previously. Briefly, 50-150 ng of antigen was coated overnight in half-area 96-well plates at 4° C., blocked with 3% BSA at 37° C. for 1 h, and 150 ng of chimeric rabbit/human IgG1 was added, incubating for 2 h at 37° C. […] After incubating at 37° C. for 15 min-1 h (depending on intensity of controls), data were acquired using a SpectraMax M5 plate reader (Molecular Devices).
B7: no binding (tested: 150 ng IgG1 per well).

Target: T5, SELL (L-Selectin)
Assay: ELISA on coated SELL-Fc-His
Protocol: as §1, §2
B1: no binding (tested: 150 ng IgG1 per well). B2: no binding (tested: 150 ng IgG1 per well). B3: no binding (tested: 150 ng IgG1 per well). B4: no binding (tested: 150 ng IgG1 per well). B5: no binding (tested: 150 ng IgG1 per well). B7: no binding (tested: 150 ng IgG1 per well).

Each binder was assayed against T6, GARS, endogenous in H929 multiple … (assay: flow cytometry, H929 + vehicle; None 513; surface target GARS putative).
B7 was tested, and the “mAb binding (MFI)” value was 682000.

What follows are binders tested against T6, GARS, endogenous in H929 multiple … (assay: flow cytometry, H929 + ICAM1 siRNA; None 1.06; surface target GARS putative).
B7 was tested, and the “Cells stained (%)” value was 99.1%.

Each binder was assayed against T6, GARS, endogenous in H929 multiple … (assay: flow cytometry, H929 + PTPRG siRNA; None 2.13; surface target GARS putative).
With B7 the “Cells stained (%)” value was 100%.

These binders were tested against T6, GARS, endogenous in H929 multiple … (assay: flow cytometry, H929 + GARS siRNA (siRNA against the putative target); None 0.2).
In the case of B7, the “Cells stained (%)” value is reported as 99.4%.
